Measurements published in patent publication US20060093602A1.

Target: gp130 on HepG2 B6 cells (UniProt P40189)
Test: cell-based or functional assay

Chain of gp130 on HepG2 B6 cells (P40189 23-918 limits assumed): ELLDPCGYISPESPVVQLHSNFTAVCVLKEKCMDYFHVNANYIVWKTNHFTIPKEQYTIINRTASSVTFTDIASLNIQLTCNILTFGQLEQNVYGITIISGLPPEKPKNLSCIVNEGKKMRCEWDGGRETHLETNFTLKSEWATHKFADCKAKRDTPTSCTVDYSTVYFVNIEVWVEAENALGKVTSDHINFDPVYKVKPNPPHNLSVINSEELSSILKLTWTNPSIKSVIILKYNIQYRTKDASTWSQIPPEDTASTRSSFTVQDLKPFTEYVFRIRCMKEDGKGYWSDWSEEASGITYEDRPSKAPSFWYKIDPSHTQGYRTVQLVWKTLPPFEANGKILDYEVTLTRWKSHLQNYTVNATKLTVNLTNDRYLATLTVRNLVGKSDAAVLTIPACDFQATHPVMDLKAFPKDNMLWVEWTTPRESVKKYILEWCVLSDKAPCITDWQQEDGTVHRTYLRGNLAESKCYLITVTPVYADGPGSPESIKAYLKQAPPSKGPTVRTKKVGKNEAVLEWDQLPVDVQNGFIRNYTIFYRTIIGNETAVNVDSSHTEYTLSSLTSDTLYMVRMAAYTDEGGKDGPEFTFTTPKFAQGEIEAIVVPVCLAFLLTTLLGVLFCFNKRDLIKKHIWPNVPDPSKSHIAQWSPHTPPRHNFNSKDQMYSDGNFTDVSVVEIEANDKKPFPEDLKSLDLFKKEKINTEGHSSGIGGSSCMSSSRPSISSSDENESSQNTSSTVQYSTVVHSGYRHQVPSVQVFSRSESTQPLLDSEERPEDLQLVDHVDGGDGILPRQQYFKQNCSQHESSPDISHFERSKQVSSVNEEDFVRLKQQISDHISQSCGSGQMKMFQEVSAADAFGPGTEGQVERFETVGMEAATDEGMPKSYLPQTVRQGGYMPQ

EC50, sPAP, HepG2 B6, Expt 1: 0.0657 mg/L
EC50, sPAP, HepG2 B6, Expt 2: 0.0549 mg/L
EC50 as % of wild type, sPAP, HepG2 B6, Expt 1: 269%
EC50 as % of wild type, sPAP, HepG2 B6, Expt 2: 171%
mean EC50 as % of wild type, sPAP, HepG2 B6: 220%
Substance: OSM-GST L13A (from UniProt P08515 1-218) (ligand)
